# Experimental data as given in US20150217006A1, “AL-F-18-LABELED, AL-F-19-LABELED AND GA-68-LABELED GASTRIN-RELEASING PEPTIDE RECEPTOR (GRPR)-ANTAGONISTS FOR IMAGING OF PROSTATE CANCER” (Immunomedics, Inc., priority 2014, published 2015).
# Target: gastrin-releasing peptide receptor (GRPR) (human) (UniProt P30550)
# Experiment: competition with 125I-BBN on PC-3 cells, repeat experiment, inhibitor 250 to 2 nM
# Chain of gastrin-releasing peptide receptor (GRPR) (human) (P30550 whole entry): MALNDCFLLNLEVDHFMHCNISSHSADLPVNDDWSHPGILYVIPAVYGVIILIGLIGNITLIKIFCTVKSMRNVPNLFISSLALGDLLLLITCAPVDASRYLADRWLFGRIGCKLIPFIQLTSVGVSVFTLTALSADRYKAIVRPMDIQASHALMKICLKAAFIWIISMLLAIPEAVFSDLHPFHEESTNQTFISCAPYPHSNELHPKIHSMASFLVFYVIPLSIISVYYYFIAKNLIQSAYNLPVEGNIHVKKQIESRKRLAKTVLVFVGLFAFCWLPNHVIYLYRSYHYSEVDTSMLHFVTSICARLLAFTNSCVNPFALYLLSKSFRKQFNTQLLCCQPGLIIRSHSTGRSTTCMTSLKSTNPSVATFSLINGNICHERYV
substance,measurement,value
commercially available BBN peptide,IC50,24.4 nM
